Experimental data taken from publication PMC2686265, “ATP and MO25α Regulate the Conformational State of the STRADα Pseudokinase and Activation of the LKB1 Tumour Suppressor” (PLoS Biology, 2009).
Positions count from the first letter of the chain named. Where two headings read alike, the source gives them in different places.

How the values were obtained:
Assay in all cases: SPR BIAcore binding of STRADα to immobilised MO25α
MO25α (R227A) = target: T1, MO25α (R227A) (Homo sapiens, UniProt Q7RTN6+Q9Y376, R227A)
T1 construct: wild-type and mutant forms of STRADα (residues 54–431) and MO25α (residues 1–341) were expressed individually as GST fusion proteins in E. coli; GST (cleaved yes); made in house; host or cells: E. coli
T1 sequence (Q9Y376 1-341 R227A): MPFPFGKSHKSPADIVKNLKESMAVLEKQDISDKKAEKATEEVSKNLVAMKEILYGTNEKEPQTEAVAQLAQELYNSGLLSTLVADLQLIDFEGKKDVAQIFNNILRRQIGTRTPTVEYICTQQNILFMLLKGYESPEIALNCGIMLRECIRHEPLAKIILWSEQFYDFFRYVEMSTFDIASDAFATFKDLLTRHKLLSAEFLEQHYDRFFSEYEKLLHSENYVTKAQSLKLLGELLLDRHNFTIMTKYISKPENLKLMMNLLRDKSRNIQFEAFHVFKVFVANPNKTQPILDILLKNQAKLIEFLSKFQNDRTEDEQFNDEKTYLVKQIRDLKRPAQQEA
T1 sequence (Q7RTN6 59-431): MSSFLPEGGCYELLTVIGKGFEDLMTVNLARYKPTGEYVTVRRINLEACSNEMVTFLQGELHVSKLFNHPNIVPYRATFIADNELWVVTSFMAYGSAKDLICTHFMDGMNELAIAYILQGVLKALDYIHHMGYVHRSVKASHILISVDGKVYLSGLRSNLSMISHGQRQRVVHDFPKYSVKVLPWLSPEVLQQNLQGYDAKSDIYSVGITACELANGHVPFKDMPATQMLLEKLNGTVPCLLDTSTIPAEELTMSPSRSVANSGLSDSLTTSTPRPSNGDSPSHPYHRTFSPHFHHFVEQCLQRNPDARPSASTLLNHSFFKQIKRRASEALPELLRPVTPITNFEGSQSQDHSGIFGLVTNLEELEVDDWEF
Procedure: (§1) SPR measurements were performed using a BIAcore T100 instrument. Wild-type and mutant forms of MO25α were immobilized on a CM5 sensor chip using standard amine-coupling chemistry, and 10 mM HBS (pH 7.4) was used as the running buffer. The carboxymethyl dextran surface was activated with a 7-min injection of a 1∶1 ratio of 0.4 M 1-ethyl-3-(3-dimethylaminopropyl) carbodiimide hydrochloride (EDC)/0.1 M N-hydroxy succinimide (NHS). MO25α (5–7 µM) was coupled to the surface with a 1-min injection of protein diluted in 10 mM sodium acetate (pH 5.5). Remaining activated groups were blocked with a 7-min injection of 1 M ethanolamine (pH 8.5). MO25α was immobilised on three flow cells of a CM5 chip at densities 1,700–2,500 RU performed at 25°C, leaving one flow cell as a reference to subtract any possible nonspecific binding.
(§2) STRADα was prepared in running buffer containing 50 mM Tris (pH 7.8), 50 mM NaCl, 270 mM sucrose, 1 mM DTT, 0.005% P20, and 0.1 mg/ml BSA in the presence/absence of 100 µM ATP and 1 mM MgCl2, and injected over all four surfaces at nine concentrations of a 3-fold concentration series (5 µM to […]). Each concentration was injected in duplicate over all surfaces. Association was measured for 60 s at a flow rate of 50 µl/min, and dissociation was measured for 3 min. STRADα dissociated completely from the MO25α surfaces, thus eliminating the need for a regeneration step.
(§3) Data were analysed using Scrubber 2 (BioLogic Software) and CLAMP software. Data were double referenced to the reference surface to subtract any possible nonspecific binding and to the blank buffer injections to subtract drift of the target from surface. Data were fitted to a 1∶1 or 2∶1 binding site model where appropriate. Kinetic association (k a) and dissociation rate (k d) constants were separately determined from the BIAcore sensorgrams, and equilibrium dissociation constants (K d) were calculated as: K d1 = k d1/k a1 and K d2 = k d2/k a2. Equilibrium constants were also independently calculated from a saturation binding curve, by fitting the measured response (R) from specific binding to the following equation: R = (R max1[STRAD]/([STRAD]+K d1))+(R max2[STRAD]/([STRAD]+K d2)), where R max1 and R max2 are the relative maximal changes in response for sites 1 and 2, respectively, and K d1 and K d2 are the equilibrium dissociation constants for sites 1 and 2, respectively. Dose-response curves for calculating the Hill slope (H) of the data were fitted with the following equation: R = minimum+(maximum−minimum)/(1+10^((logEC50−[STRAD])×H)) using GraphPad-PRISM software.

MO25α (WT) = target: T2, MO25α (WT) (Homo sapiens, UniProt Q7RTN6+Q9Y376)
T2 construct: wild-type and mutant forms of STRADα (residues 54–431) and MO25α (residues 1–341) were expressed individually as GST fusion proteins in E. coli; GST (cleaved yes); made in house; host or cells: E. coli (STRADα: BL21(DE3)pLysS, co-expressed with MO25α and then separated from it)
T2 sequence (Q9Y376 1-341): T1 sequence (Q9Y376 1-341 R227A) with A227R
T2 sequence (Q7RTN6 59-431): T1 sequence (Q7RTN6 59-431)
Procedure: as §1, §2, §3

MO25α (M260A) = target: T3, MO25α (M260A) (Homo sapiens, UniProt Q7RTN6+Q9Y376, M260A)
T3 construct: wild-type and mutant forms of STRADα (residues 54–431) and MO25α (residues 1–341) were expressed individually as GST fusion proteins in E. coli; GST (cleaved yes); made in house; host or cells: E. coli
T3 sequence (Q9Y376 1-341 M260A): T1 sequence (Q9Y376 1-341 R227A) with A227R, M260A
T3 sequence (Q7RTN6 59-431): T1 sequence (Q7RTN6 59-431)
Procedure: as §1, §2, §3

MO25α (R227A/M260A) = target: T4, MO25α (R227A/M260A) (Homo sapiens, UniProt Q9Y376, M260A/R227A); details: even in the presence of ATP
T4 construct: wild-type and mutant forms of STRADα (residues 54–431) and MO25α (residues 1–341) were expressed individually as GST fusion proteins in E. coli; GST (cleaved yes); made in house; host or cells: E. coli
Procedure: as §1, §2, §3

T4 sequence (Q9Y376 whole entry R227A/M260A, one chain of several, the tested form may be a part): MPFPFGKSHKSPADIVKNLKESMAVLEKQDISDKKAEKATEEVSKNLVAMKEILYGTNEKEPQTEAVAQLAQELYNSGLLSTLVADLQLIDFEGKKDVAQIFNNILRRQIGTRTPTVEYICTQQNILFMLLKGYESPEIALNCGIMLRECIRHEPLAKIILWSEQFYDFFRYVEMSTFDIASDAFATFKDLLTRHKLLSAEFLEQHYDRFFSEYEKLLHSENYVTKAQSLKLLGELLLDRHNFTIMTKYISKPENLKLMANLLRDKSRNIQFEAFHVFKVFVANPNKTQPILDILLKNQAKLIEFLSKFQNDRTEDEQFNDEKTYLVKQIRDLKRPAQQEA

kd1 (MO25α (R227A); + ATP + Mg2+): 0.72 (2.0 × 10−3) s−1
binding of STRADα observed by SPR (MO25α (R227A); in the absence of ATP): virtually abolished binding
Kd (MO25α (WT); + 0.1 mM ATP, Kd = kd/ka, read-out: Kd1): 2500 nM
kd1 (MO25α (WT); + ATP + Mg2+): 0.43 (1.4 × 10−3) s−1
kd2 (MO25α (WT); + ATP + Mg2+): 0.04 (8.8 × 10−5) s−1
Hill slope (MO25α (WT); in the presence of ATP, two-site binding): 0.4
Kd (MO25α (WT); in the presence of ATP, read-out: second binding constant (Kd2)): 12 nM
kd1 (MO25α (WT); no ATP): 0.63 (3.0 × 10−3) s−1
Kd (MO25α (WT); no ATP, Kd = kd/ka, read-out: Kd1): 3800 nM
kd1 (MO25α (M260A); + ATP + Mg2+): 0.43 (1.7 × 10−3) s−1
kd2 (MO25α (M260A); + ATP + Mg2+): 0.05 (2.3 × 10−4) s−1
kd1 (MO25α (M260A); no ATP): 0.92 (3.0 × 10−3) s−1
interaction with STRADα (MO25α (R227A/M260A)): failed to interact
B1: STRADα: STRADα pseudokinase (residues 59–431), His tag removed, analyte injected over immobilised MO25α in SPR (protein)
chain: T1 sequence (Q7RTN6 59-431)
modifications: left off: His6 with TEV site (…), N-terminal, cleaved
notes: STRADα pseudokinase (residues 59–431), His tag removed, analyte injected over immobilised MO25α in SPR
